Experimental data from patent US20210364527A1.

Key:
[1] = target: FA peptide (N-terminal phenylalanine, penultimate alanine; rest of sequence not given); experiment: stopped-flow, complex mixed with excess unlabelled trap peptide
[2] = target: IR peptide (N-terminal IR; rest of sequence not given); experiment: binder-on-chip, run 94158
[3] = target: IA peptide (N-terminal isoleucine, penultimate alanine; rest of sequence not given); experiment: binder-on-chip single-molecule assay
[4] = target: IR peptide (N-terminal IR; rest of sequence not given); experiment: binder-on-chip single-molecule assay
[5] = target: T1, LA peptide (N-terminal leucine, penultimate alanine; rest of sequence not given); experiment: binder-on-chip single-molecule assay
[6] = target: T2, N-terminal leucine peptide …; experiment: peptide-on-chip recognition assay, dye-labelled PS372
T2 sequence (peptide): LAAIAAFAADDDW

[7] = target: fluorescently-labeled peptide containing N-terminal phospho-tyrosine; experiment: single-molecule, SH2 variant immobilized in sample wells, labeled peptide in solution; top panel
[8] = target: fluorescently-labeled peptide containing N-terminal phospho-tyrosine; experiment: single-molecule, SH2 variant immobilized in sample wells, labeled peptide in solution; bottom panel
[9] = target: peptide containing N-terminal phospho-serine; experiment: negative control, single-molecule, SH2 variant immobilized, labeled phospho-serine peptide in solution; top trace
[10] = target: peptide containing N-terminal phospho-serine; experiment: negative control, single-molecule, SH2 variant immobilized, labeled phospho-serine peptide in solution; bottom trace
[11] = target: peptide containing N-terminal phospho-serine; experiment: negative control, single-molecule, SH2 variant immobilized, labeled phospho-serine peptide in solution; middle trace
[12] = target: fluorescently-labeled peptide containing N-terminal phospho-tyrosine; experiment: single-molecule, SH2 variant immobilized in sample wells, labeled peptide in solution; top plot (top trace of FIG. 22A)
[13] = target: fluorescently-labeled peptide containing N-terminal phospho-tyrosine; experiment: single-molecule, SH2 variant immobilized in sample wells, labeled peptide in solution; bottom plot (bottom trace of FIG. 22A)
[14] = target: fluorescently-labeled peptide containing N-terminal phospho-tyrosine; experiment: single-molecule, SH2 variant immobilized in sample wells, labeled peptide in solution; middle plot (middle trace of FIG. 22A)
[15] = target: T1, LA peptide (N-terminal leucine, …); experiment: stopped-flow, complex mixed with excess unlabelled trap peptide
[16] = target: peptide having an N-terminal (unmodified) tyrosine residue (rest of sequence not given)
[17] = target: peptide having an N-terminal phenylalanine residue (rest of sequence not given)
[18] = target: peptide having an N-terminal tryptophan residue (rest of sequence not given)
[19] = target: polypeptide with a terminal leucine residue (rest of sequence not given)

B1: PS705 (atClpS2-V1-SNAP TAG fusion 2) (designed binder)
chain: MSDSPVDLKPKPKVKPKLERPKLYKVMLLNDDYTPMSFVTVVLKAVFRMSEDTGRRVMMTAHRFGSAVVVVCERDIAETKAKEATDLGKEAGFPLMFTTEPEEHHHHHHHHHHGGGSGGGSGGGSGLNDFFEAQKIEWHEGGGSGGGSGGGSGLNDFFEAQKIEWHEGSAGSAAGSGEFMDKDCEMKRTTLDSPLGKLELSGCEQGLHEIKLLGKGTSAADAVEVPAPAAVLGGPEPLMQATAWLNAYFHQPEAIEEFPVPALHHPVFQQESFTRQVLWKLLKVVKFGEVISYQQLAALAGNPAATAAVKTALSGNPVPILIPCHRVVSSSGAVGGYEGGLAVKEWLLAHEGHRLGKPGLG
[1]
  koff: 1.27 s⁻¹

B2: PS706 (atClpS2-V1-EF fusion) (designed binder)
chain: MSDSPVDLKPKPKVKPKLERPKLYKVMLLNDDYTPMSFVTVVLKAVFRMSEDTGRRVMMTAHRFGSAVVVVCERDIAETKAKEATDLGKEAGFPLMFTTEPEEGSAGSAAGSGEFMIKKYTGDFETTTDLNDCRVWSWGVCDIDNVDNITFGLEIDSFFEWCEMQGSTDIYFHDEKFDGEFMLSWLFKNGFKWCKEAKEERTFSTLISNMGQWYALEICWNVKCTTTKTGKTKKEKQRTIIYDSLKKYPFPVKEIAEAFNFPIKKGEIDYTKERPIGYNPTDDEWDYLKNDIQIMAMALKIQFDQGLTRMTRGSDALGDYQDWVKTTYGKSRFKQWFPVLSLGFDKDLRKAYKGGFTWVNKVFQGKEIGEGIVFDVNSLYPSQMYVRPLPYGTPLFYEGEYKENIDYPLYIQNIKVRFRLKERHIPTIQVKQSSLFIQNEYLESSVNKLGVDELIDLTLTNVDLDLFFEHYDILEIHYTYGYMFKASCDMFKGWIDKWIEVKNTTEGARKANAKGMLNSLYGKFGTNPDITGKVPYMGEDGIVRLTLGEEELRDPVYVPLASFVTAWGRYTTITTAQRCFDNIIYCDTDSIHLTGTEVPEAIEHLVDSKKLGYWKHESTFQRAKFIRQKTYVEEIDGELNVKCAGMPDRIKELVTFDNFEVGFSSYGKLLPKRTQGGVVLVDTMFTIKGSAGSAAGSGEFHHHHHHHHHHGGGSGGGSGGGSGLNDFFEAQKIEWHEGGGSGGGSGGGSGLNDFFEAQKIEWHE
[1]
  koff: 0.589 s⁻¹

B3: PS704 (atClpS2-V1-2xSNAP TAG fusion) (designed binder)
chain: MSDSPVDLKPKPKVKPKLERPKLYKVMLLNDDYTPMSFVTVVLKAVFRMSEDTGRRVMMTAHRFGSAVVVVCERDIAETKAKEATDLGKEAGFPLMFTTEPEEGSAGSAAGSGEFMDKDCEMKRTTLDSPLGKLELSGCEQGLHEIKLLGKGTSAADAVEVPAPAAVLGGPEPLMQATAWLNAYFHQPEAIEEFPVPALHHPVFQQESFTRQVLWKLLKVVKFGEVISYQQLAALAGNPAATAAVKTALSGNPVPILIPCHRVVSSSGAVGGYEGGLAVKEWLLAHEGHRLGKPGLGMDKDCEMKRTTLDSPLGKLELSGCEQGLHEIKLLGKGTSAADAVEVPAPAAVLGGPEPLMQATAWLNAYFHQPEAIEEFPVPALHHPVFQQESFTRQVLWKLLKVVKFGEVISYQQLAALAGNPAATAAVKTALSGNPVPILIPCHRVVSSSGAVGGYEGGLAVKEWLLAHEGHRLGKPGLGGSAGSAAGSGEFHHHHHHHHHHGGGSGGGSGGGSGLNDFFEAQKIEWHEGGGSGGGSGGGSGLNDFFEAQKIEWHE
[1]
  koff: 0.677 s⁻¹

B4: PS372 (ClpS homolog) (protein)
chain: MAFPARGKTAPKNEVRRQPPYNVILLNDDDHTYRYVIEMLQKIFGFPPEKGFQIAEEVDRTGRVILLTTSKEHAELKQDQVHSYGPDPYLGRPCSGSMTCVIEPAV
[2]
  Median pulse width: 64 ms
  mean pulse width: 86 ms
[3]
  pulse duration: 70 ms
[4]
  pulse duration: 83 ms
[5]
  mean pulse width: 876 ms
[6]
  mean pulse width: 957 ms

B5: H. sapiens Fyn SH2 domain triple mutant superbinder (designed binder)
chain: MGAMDSIQAEEWYFGKLGRKDAERQLLSFGNPRGTFLIRESETVKGAYALSIRDWDDMKGDHVKHYLIRKLDNGGYYITTRAQFETLQQLVQHYSERAAGLSSRLVVPSHK
[7]
  mean pulse duration (dashed line of the distribution): 0.26 s
[8]
  mean interpulse duration (dashed line of the distribution): 0.51 s
[9]
  pulse duration, M (median) of one trace: 0.09 s
  pulse duration, μ (mean) of one trace: 0.09 s
[10]
  pulse duration, M (median) of one trace: 0.1 s
  pulse duration, μ (mean) of one trace: 0.16 s
[11]
  pulse duration, M (median) of one trace: 0.11 s
  pulse duration, μ (mean) of one trace: 0.15 s
[12]
  pulse duration, M (median) of one trace: 0.15 s
  pulse duration, μ (mean) of one trace: 0.25 s
[13]
  pulse duration, M (median) of one trace: 0.17 s
  pulse duration, μ (mean) of one trace: 0.26 s
[14]
  pulse duration, M (median) of one trace: 0.15 s
  pulse duration, μ (mean) of one trace: 0.23 s

B6: PS703 (atClpS2-V1-SNAP TAG fusion) (designed binder)
chain: MSDSPVDLKPKPKVKPKLERPKLYKVMLLNDDYTPMSFVTVVLKAVFRMSEDTGRRVMMTAHRFGSAVVVVCERDIAETKAKEATDLGKEAGFPLMFTTEPEEGSAGSAAGSGEFMDKDCEMKRTTLDSPLGKLELSGCEQGLHEIKLLGKGTSAADAVEVPAPAAVLGGPEPLMQATAWLNAYFHQPEAIEEFPVPALHHPVFQQESFTRQVLWKLLKVVKFGEVISYQQLAALAGNPAATAAVKTALSGNPVPILIPCHRVVSSSGAVGGYEGGLAVKEWLLAHEGHRLGKPGLGGSAGSAAGSGEFHHHHHHHHHHGGGSGGGSGGGSGLNDFFEAQKIEWHEGGGSGGGSGGGSGLNDFFEAQKIEWHE
[1]
  koff: 0.767 s⁻¹

B7: Planctomycetia bacterium ClpS homolog (PS557) (protein)
chain: MPTAASATESAIEDTPAPARPEVDGRTKPKRQPRYHVVLWNDDDHTYQYVVVMLQSLFGHPPERGYRLAKEVDTQGRVIVLTTTREHAELKRDQIHAFGYDRLLARSKGSMKASIEAEE
[15]
  koff: 0.22 s⁻¹

B8: PS696 (PS557-SNAP TAG fusion) (designed binder)
chain: MPTAASATESAIEDTPAPARPEVDGRTKPKRQPRYHVVLWNDDDHTYQYVVVMLQSLFGHPPERGYRLAKEVDTQGRVIVLTTTREHAELKRDQIHAFGYDRLLARSKGSMKASIEAEEGSAGSAAGSGEFMDKDCEMKRTTLDSPLGKLELSGCEQGLHEIKLLGKGTSAADAVEVPAPAAVLGGPEPLMQATAWLNAYFHQPEAIEEFPVPALHHPVFQQESFTRQVLWKLLKVVKFGEVISYQQLAALAGNPAATAAVKTALSGNPVPILIPCHRVVSSSGAVGGYEGGLAVKEWLLAHEGHRLGKPGLGGSAGSAAGSGEFHHHHHHHHHHGGGSGGGSGGGSGLNDFFEAQKIEWHEGGGSGGGSGGGSGLNDFFEAQKIEWHE
[15]
  koff: 0.15 s⁻¹

B9: PS698 (PS557-SNAP TAG fusion 2) (designed binder)
chain: MPTAASATESAIEDTPAPARPEVDGRTKPKRQPRYHVVLWNDDDHTYQYVVVMLQSLFGHPPERGYRLAKEVDTQGRVIVLTTTREHAELKRDQIHAFGYDRLLARSKGSMKASIEAEEHHHHHHHHHHGGGSGGGSGGGSGLNDFFEAQKIEWHEGGGSGGGSGGGSGLNDFFEAQKIEWHEGSAGSAAGSGEFMDKDCEMKRTTLDSPLGKLELSGCEQGLHEIKLLGKGTSAADAVEVPAPAAVLGGPEPLMQATAWLNAYFHQPEAIEEFPVPALHHPVFQQESFTRQVLWKLLKVVKFGEVISYQQLAALAGNPAATAAVKTALSGNPVPILIPCHRVVSSSGAVGGYEGGLAVKEWLLAHEGHRLGKPGLG
[15]
  koff: 0.19 s⁻¹

B10: Agrobacterium tumifaciens ClpS1 (atClpS1) (protein)
chain: MIAEPICMQGEGDGEDGGTNRGTSVITRVKPKTKRPNLYRVLLLNDDYTPMEFVIHILERFFQKDREAATRIMLHVHQHGVGECGVFTYEVAETKVSQVMDFARQHQHPLQCVMEKK
[16]
  mean pulse duration (dashed line of the distribution): 0.69 s
[17]
  mean pulse duration (dashed line of the distribution): 0.59 s
[18]
  mean pulse duration (dashed line of the distribution): 0.34 s
[19]
  mean pulse duration (dashed line of the distribution): 0.31 s
